Consider four molecules from patent EP4717714A1 (Shanghai Junshi Biosciences Co., Ltd., dated 2026).

The target in assay [1] is T1, Recombinant human PD-1 (prepared by Suzhou Junmeng Biopharm Co., Ltd. according to the sequence of NCBI … (human, UniProt Q15116 25-170, limits assumed)).
T1 construct: Soluble recombinant protein used in BLI and coated in ELISA; also called antigen PD-1
The assay is described as follows: competitive ELISA, PD-1 coated, competitor Biotin-PD-L1 hFc at 4.0 µg/mL (FIG. 9b).

Assay [2] deals with T1, Recombinant human PD-1 (prepared by …). Kind of assay: BLI (Octet RED96e), antibody captured at 5 µg/mL, PD-1 at 210 and 70 nM. (In BLI a coated tip is dipped into the sample, and binding shifts an interference pattern.)
Assay [3] shares this target. The assay is described as follows: indirect ELISA, human PD-1 coated at 0.3 µg/mL (FIG. 6b). (In general: ELISA stands for enzyme-linked immunosorbent assay.)
The target is the same in assay [4]. Kind of assay: indirect ELISA, human PD-1 coated at 0.3 µg/mL (FIG. 6a).
Assay [5] has the same target. Kind of assay: competitive ELISA, PD-1 coated, competitor Biotin-PD-L1 hFc at 4.0 µg/mL (FIG. 9a).
Assay [6] shares this target. The assay is described as follows: indirect ELISA on coated human PD-1; sample in human serum, 37°C, 2 week.
For assay [7], the target named is T2, Recombinant human VEGFA (Sino Biological, catalog number 11066-HNAB) (human).
T2 construct: also called VEGF antigen; Human/Cynomolgus VEGF/VEGFA/VEGF165 Protein
T2 chain: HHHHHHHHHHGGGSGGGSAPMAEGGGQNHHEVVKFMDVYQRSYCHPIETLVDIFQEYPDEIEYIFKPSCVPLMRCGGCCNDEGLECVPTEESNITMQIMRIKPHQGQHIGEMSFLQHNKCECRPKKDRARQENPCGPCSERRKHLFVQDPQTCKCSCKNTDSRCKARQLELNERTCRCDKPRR
The assay is described as follows: indirect ELISA on coated human VEGF; stability sample, 5°C, 4 week.

For assay [8], the target named is T1, Recombinant human PD-1 (prepared by …). Kind of assay: indirect ELISA on coated human PD-1; stability sample, 5°C, 4 week.
The target is the same in assay [9]. Kind of assay: competitive ELISA against PD-L1 hFc on coated PD-1, relative to TAB001 (JS001) control.
For assay [10], the target named is T2, Recombinant human VEGFA (Sino …). The assay is described as follows: BLI (Octet RED96e), told of the group.
The target in assay [11] is T1, Recombinant human PD-1 (prepared by …). Kind of assay: indirect ELISA on coated human PD-1; sample in human serum, 37°C, 4 week.
Assay [12] addresses T2, Recombinant human VEGFA (Sino …). The assay is described as follows: indirect ELISA on coated human VEGF; stability sample, 5°C, 0 week.
The target is the same in assay [13]. The assay is described as follows: competitive ELISA, VEGFA coated, competitor biotinylated VEGFR2 at 0.3 µg/mL (FIG. 8a).
For assay [14] the target is unchanged. The assay is described as follows: indirect ELISA on coated human VEGF; stability sample, 5°C, 2 week.
Assay [15] has as its target T1, Recombinant human PD-1 (prepared by …). The assay is described as follows: indirect ELISA on coated human PD-1; sample in human serum, 37°C, 0 week.
Assay [16] deals with T2, Recombinant human VEGFA (Sino …). Kind of assay: indirect ELISA on coated human VEGFA, relative to Avastin control.
For assay [17] the target is unchanged. The assay is described as follows: indirect ELISA on coated human VEGF; sample in human serum, 37°C, 2 week.
Assay [18] shares this target. Kind of assay: indirect ELISA on coated human VEGF; sample in human serum, 37°C, 4 week.
In assay [19] the target is T1, Recombinant human PD-1 (prepared by …). The assay is described as follows: indirect ELISA on coated human PD-1; stability sample, 5°C, 0 week.
For assay [20], the target named is T2, Recombinant human VEGFA (Sino …). The assay is described as follows: indirect ELISA, human VEGFA coated at 0.5 µg/mL (FIG. 7a).
Assay [21] has the same target. The assay is described as follows: indirect ELISA on coated human VEGF; sample in human serum, 37°C, 0 week.
Assay [22] shares this target. The assay is described as follows: cell-based or functional assay.
The target of assay [23] is Human PD-1 on the cell surface (Jurkat PD-1 effector cells, Promega); CD4 T cells in the mixed lymphocyte … (human, UniProt Q15116 25-288). Kind of assay: cell-based or functional assay.
Assay [24] has as its target T2, Recombinant human VEGFA (Sino …). The assay is described as follows: BLI (Octet RED96e), antibody captured at 5 µg/mL, VEGFA at 50 and 25 nM.
In assay [25] the target is T1, Recombinant human PD-1 (prepared by …). Kind of assay: indirect ELISA on coated human PD-1, relative to TAB001 (JS001) control.
Assay [26] deals with T2, Recombinant human VEGFA (Sino …). Kind of assay: competitive ELISA against VEGFR2 on coated VEGFA, relative to Avastin control.
The target is the same in assay [27]. Kind of assay: competitive ELISA, VEGFA coated, competitor biotinylated VEGFR2 at 0.3 µg/mL (FIG. 8b).
Assay [28] has the same target. Kind of assay: indirect ELISA, human VEGFA coated at 0.5 µg/mL (FIG. 7b).

B1: JS001 (recombinant humanized anti-PD-1 monoclonal antibody reference article, Toripalimab) (antibody, human IgG4 S228P, kappa, V domains shown)
VH: QGQLVQSGAEVKKPGASVKVSCKASGYTFTDYEMHWVRQAPIHGLEWIGVIESETGGTAYNQKFKGRVTITADKSTSTAYMELSSLRSEDTAVYYCAREGITTVATTYYWYFDVWGQGTTVTVSS
VL: DVVMTQSPLSLPVTLGQPASISCRSSQSIVHSNGNTYLEWYLQKPGQSPQLLIYKVSNRFSGVPDRFSGSGSGTDFTLKISRVEAEDVGVYYCFQGSHVPLTFGQGTKLEIKR
notes: also called TAB001; anti-PD-1 monoclonal antibody JS001
By IC50 is commonly meant the midpoint of a concentration-inhibition curve. As usually defined, the Kd is the equilibrium constant for the complex coming apart. By koff is commonly meant a measure of how fast the partners let go of each other. The term kon denotes the rate constant with which the complex forms. In general, EC50 refers to the concentration giving half of the maximal effect. Consider B1, for which the half-inhibitory concentration (IC50) was found to be 255 nM in [1] and 135 nM in assay [5]. Besides, the dissociation constant (Kd) in assay [2] stood at 0.584 nM. Besides, the koff in [2] was 3.93e-05 s⁻¹. For the same molecule, the kon in [2] came to 67300 M⁻¹ s⁻¹. For the same molecule, the EC50 in assay [3] stood at 18.3 nM; in [4] it was 3.6 nM.

B2: Bispecific antibody molecule 23 (bispecific antibody, human IgG4 S228P, kappa)
light: DVVMTQSPLSLPVTLGQPASISCRSSQSIVHSNGNTYLEWYLQKPGQSPQLLIYKVSNRFSGVPDRFSGSGSGTDFTLKISRVEAEDVGVYYCFQGSHVPLTFGQGTKLEIKRTVAAPSVFIFPPSDEQLKSGTASVVCLLNNFYPREAKVQWKVDNALQSGNSQESVTEQDSKDSTYSLSSTLTLSKADYEKHKVYACEVTHQGLSSPVTKSFNRGEC
heavy: not shown
notes: expressed in CHO-K1; also called Antibody 23; antibody 23 (IgG4)
With B2, the “Binding activity (%), PD-1 end” value in assay [6] was determined as 95%; in assay [8], 97%; in assay [11], 82%; in assay [15], 121%; in [19], 105%. Besides, the “Binding activity (%), VEGF end” value in [7] was 81%; in assay [12] it was 99%; in assay [14], 104%; in assay [17], 96%; in [18], 79%; in assay [21], 98%. The “Relative binding activity (%)” value in assay [9] stood at 46%; in [16] it was 175%; in [25], 52%; in assay [26], 97%. The Kd in assay [10] was less than 0.5 nM; in [2], 1.73 nM; in [24], less than 0.0186 nM. Besides, the IC50 amounted to 679 nM in assay [13] and 293 nM in assay [5]. In addition, the koff in assay [2] is 7.73e-05 s⁻¹; in assay [24], less than 1e-05 s⁻¹. The on-rate (kon) came out at 44800 M⁻¹ s⁻¹ in assay [2] and 538000 M⁻¹ s⁻¹ in [24]. For the same molecule, the values for the concentration giving a half-maximal response (EC50) in assay [4] and in assay [20] were 6.93 nM and 2.05 nM, respectively. Moreover, the “IC50, VEGFA-induced proliferation of HUVEC cells” value (shortened to “IC50, VEGFA-induced proliferation”) in assay [22] was 81.1 nM. In addition, the “EC50, PD-1/PD-L1 luciferase reporter gene system (Jurkat PD-1 / CHO PD-L1)” value (“EC50 … (Jurkat PD-1 / CHO PD-L1)” for short) in [23] came to 11.9 nM.

B3: Bispecific antibody molecule 24 (bispecific antibody, human IgG4 S228P, kappa)
light: B2 light
heavy: not shown
notes: Anti-PD-1 IgG4 (JS001) with the anti-VEGF VHH at the C-terminus of each heavy chain; also called Antibody 24; antibody 24 (IgG4)
Take B3: the “Binding activity (%), PD-1 end” value in assay [6] is 63%; in [8] it was 86%; in assay [11], 89%; in assay [15], 106%; in [19], 94%. Moreover, the “Binding activity (%), VEGF end” value in assay [7] amounted to 102%; in assay [12], 100%; in assay [14], 85%; in assay [17], 81%; in assay [18] it was 95%; in assay [21], 104%. Moreover, the “Relative binding activity (%)” value amounted to 55% in assay [9], 27% in assay [16], 25% in assay [25] and 61% in assay [26]. Also, the Kd is less than 0.5 nM in assay [10], 1.21 nM in assay [2] and 0.191 nM in [24]. Besides, the IC50 in assay [13] amounted to 1080 nM; in assay [5] it was 243 nM. The off-rate (koff) in assay [2] is 9.38e-05 s⁻¹; in assay [24], 7.92e-05 s⁻¹. Besides, the on-rate (kon) in [2] was 77600 M⁻¹ s⁻¹; in assay [24], 414000 M⁻¹ s⁻¹. The EC50 in assay [4] was found to be 14.6 nM; in [20], 13.2 nM. Moreover, the “IC50, VEGFA-induced proliferation” value in [22] worked out at 88 nM. Moreover, the “EC50 … (Jurkat PD-1 / CHO PD-L1)” value in [23] amounted to 8.17 nM.

B4: Bispecific antibody molecule 27 (bispecific antibody, human IgG4 S228P, kappa)
light: B2 light
heavy: not shown
notes: Anti-PD-1 IgG4 (JS001) with the anti-VEGF VHH inserted between CH1 and the hinge of each heavy chain; also called Antibody 27; antibody 27 (IgG4)
As for B4, the “Binding activity (%), PD-1 end” value turned out to be 86% in assay [6]; 107% in [8]; 83% in [11]; 93% in [15]; 95% in assay [19]. Besides, the “Binding activity (%), VEGF end” value amounted to 104% in assay [7]; 97% in [12]; 92% in [14]; 86% in [17]; 78% in assay [18]; 101% in assay [21]. Besides, the half-maximal inhibitory concentration (IC50) in [1] worked out at 297 nM; in assay [27], 3560 nM. The “Relative binding activity (%)” value in assay [9] was 86%; in assay [16], 53%; in assay [25] it was 77%; in [26], 85%. Further, the results for the dissociation constant Kd in assay [10], in [2] and in [24] were less than 0.5 nM, 0.864 nM and 0.0521 nM, respectively. Also, the off-rate constant (koff) in [2] was determined as 5.57e-05 s⁻¹; in assay [24] it was 4.24e-05 s⁻¹. The kon came to 64400 M⁻¹ s⁻¹ in assay [2] and 815000 M⁻¹ s⁻¹ in assay [24]. Besides, the figures for the EC50 in [3] and in [28] were 23.8 nM and 6.62 nM, respectively. The “IC50, VEGFA-induced proliferation” value in [22] is 104 nM. Besides, the “EC50 … (Jurkat PD-1 / CHO PD-L1)” value in assay [23] is 16.9 nM.
